Among the data in publication PMC9599533 are stoichiometry N values, retold here.

In general, stoichiometry N refers to the number of molecules, sites or subunits per partner or assembly.

The test deals with α-subunit of the M. tuberculosis open gate 20S core particle (M. tuberculosis) (UniProt P9WHU1). Nature of the test: cryo-EM structure.

As for “α-subunit of the M. tuberculosis open gate 20S core particle (from UniProt P9WHU1 9-248) (domain or fragment)”, the stoichiometry N worked out at 7.
